Measured values reported in article PMC10397247.

Experiments:
Assay in all cases: two-hybrid library CCmax;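 note: natural log of median RNA to DNA barcode read ratio; higher means stronger binding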
4H605-AA = target: T1, 4H605-AA; details: mean of both orientations
T1 chain: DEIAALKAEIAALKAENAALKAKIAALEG

4H454-AA = target: T2, 4H454-AA; details: mean of both orientations
T2 chain: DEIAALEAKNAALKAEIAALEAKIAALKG

4H317-AA = target: T3, 4H317-AA; details: mean of both orientations
T3 chain: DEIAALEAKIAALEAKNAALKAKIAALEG

4H1153-AA = target: T4, 4H1153-AA; details: mean of both orientations
T4 chain: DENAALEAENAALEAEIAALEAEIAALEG

4H48-AA = target: T5, 4H48-AA; details: mean of both orientations
T5 chain: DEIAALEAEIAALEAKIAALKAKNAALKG

4H2393-AA = target: T6, 4H2393-AA; details: mean of both orientations
T6 chain: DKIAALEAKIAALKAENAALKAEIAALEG

4H2078-AA = target: T7, 4H2078-AA; details: mean of both orientations
T7 chain: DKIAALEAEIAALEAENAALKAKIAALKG

4H2466-AA = target: T8, 4H2466-AA; details: mean of both orientations
T8 chain: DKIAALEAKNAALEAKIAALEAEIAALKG

4H2575-AA = target: T9, 4H2575-AA; details: mean of both orientations
T9 chain: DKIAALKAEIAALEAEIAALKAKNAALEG

4H1867-AA = target: T10, 4H1867-AA; details: mean of both orientations
T10 chain: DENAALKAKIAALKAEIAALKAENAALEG

4H566-AA = target: T11, 4H566-AA; details: mean of both orientations
T11 chain: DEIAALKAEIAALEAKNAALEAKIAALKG

4H3606-AA = target: T12, 4H3606-AA; details: mean of both orientations
T12 chain: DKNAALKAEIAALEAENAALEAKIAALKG

4H1324-AA = target: T13, 4H1324-AA; details: mean of both orientations
T13 chain: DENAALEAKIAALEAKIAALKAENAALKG

4H2949-AA = target: T14, 4H2949-AA; details: mean of both orientations
T14 chain: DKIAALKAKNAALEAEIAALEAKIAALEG

4H2277-AA = target: T15, 4H2277-AA; details: mean of both orientations
T15 chain: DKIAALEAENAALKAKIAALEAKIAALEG

4H2354-AA = target: T16, 4H2354-AA; details: mean of both orientations
T16 chain: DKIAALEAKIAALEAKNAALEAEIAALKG

4H3343-AA = target: T17, 4H3343-AA; details: mean of both orientations
T17 chain: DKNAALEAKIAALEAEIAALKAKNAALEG

4H1636-AA = target: T18, 4H1636-AA; details: mean of both orientations
T18 chain: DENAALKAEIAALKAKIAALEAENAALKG

4H780-AA = target: T19, 4H780-AA; details: mean of both orientations
T19 chain: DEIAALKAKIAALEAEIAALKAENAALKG

4H2944-AA = target: T20, 4H2944-AA; details: mean of both orientations
T20 chain: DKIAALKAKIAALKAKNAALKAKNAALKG

4H717-AA = target: T21, 4H717-AA; details: mean of both orientations
T21 chain: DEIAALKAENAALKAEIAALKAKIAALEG

4H122-AA = target: T22, 4H122-AA; details: mean of both orientations
T22 chain: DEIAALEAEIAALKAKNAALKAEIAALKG

4H1135-AA = target: T23, 4H1135-AA
T23 chain: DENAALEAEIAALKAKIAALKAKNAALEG

4H3921-AA = target: T24, 4H3921-AA; details: mean of both orientations
T24 chain: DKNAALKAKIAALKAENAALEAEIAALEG

4H3427-AA = target: T25, 4H3427-AA; details: mean of both orientations
T25 chain: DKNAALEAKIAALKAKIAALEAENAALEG

4H429-AA = target: T26, 4H429-AA; details: mean of both orientations
T26 chain: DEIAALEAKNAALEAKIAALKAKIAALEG

4H2642-AA = target: T27, 4H2642-AA; details: mean of both orientations
T27 chain: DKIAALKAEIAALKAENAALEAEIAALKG

4H2190-AA = target: T28, 4H2190-AA; details: mean of both orientations
T28 chain: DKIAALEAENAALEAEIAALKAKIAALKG

4H3112-AA = target: T29, 4H3112-AA; details: mean of both orientations
T29 chain: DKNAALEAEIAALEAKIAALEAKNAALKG

4H1552-AA = target: T30, 4H1552-AA; details: mean of both orientations
T30 chain: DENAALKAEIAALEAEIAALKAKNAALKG

4H234-AA = target: T31, 4H234-AA; details: mean of both orientations
T31 chain: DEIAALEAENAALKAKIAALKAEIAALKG

4H3844-AA = target: T32, 4H3844-AA; details: mean of both orientations
T32 chain: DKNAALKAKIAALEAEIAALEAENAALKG

4H3655-AA = target: T33, 4H3655-AA; details: mean of both orientations
T33 chain: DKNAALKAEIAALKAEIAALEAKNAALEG

4H2729-AA = target: T34, 4H2729-AA; details: mean of both orientations
T34 chain: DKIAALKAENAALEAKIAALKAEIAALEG

4H1352-AA = target: T35, 4H1352-AA; details: mean of both orientations
T35 chain: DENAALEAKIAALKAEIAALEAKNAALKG

4H2151-AA = target: T36, 4H2151-AA; details: mean of both orientations
T36 chain: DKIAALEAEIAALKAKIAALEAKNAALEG

4H906-AA = target: T37, 4H906-AA; details: mean of both orientations
T37 chain: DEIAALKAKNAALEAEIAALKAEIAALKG

4H993-AA = target: T38, 4H993-AA; details: mean of both orientations
T38 chain: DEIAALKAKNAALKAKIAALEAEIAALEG

4H342-AA = target: T39, 4H342-AA; details: mean of both orientations
T39 chain: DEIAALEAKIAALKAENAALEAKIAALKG

4H3627-AA = target: T40, 4H3627-AA; details: mean of both orientations
T40 chain: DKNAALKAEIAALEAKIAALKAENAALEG

4H2837-AA = target: T41, 4H2837-AA; details: mean of both orientations
T41 chain: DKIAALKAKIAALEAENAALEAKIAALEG

4H794-AA = target: T42, 4H794-AA; details: mean of both orientations
T42 chain: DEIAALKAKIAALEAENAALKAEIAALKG

4H1401-AA = target: T43, 4H1401-AA; details: mean of both orientations
T43 chain: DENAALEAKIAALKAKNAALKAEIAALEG

4H678-AA = target: T44, 4H678-AA; details: mean of both orientations
T44 chain: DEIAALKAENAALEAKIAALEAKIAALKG

4H2165-AA = target: T45, 4H2165-AA; details: mean of both orientations
T45 chain: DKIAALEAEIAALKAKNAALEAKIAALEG

4H2883-AA = target: T46, 4H2883-AA; details: mean of both orientations
T46 chain: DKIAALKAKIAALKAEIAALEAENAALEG

4H2505-AA = target: T47, 4H2505-AA; details: mean of both orientations
T47 chain: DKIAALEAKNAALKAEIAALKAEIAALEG

4H2754-AA = target: T48, 4H2754-AA; details: mean of both orientations
T48 chain: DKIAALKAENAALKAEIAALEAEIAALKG

4H881-AA = target: T49, 4H881-AA; details: mean of both orientations
T49 chain: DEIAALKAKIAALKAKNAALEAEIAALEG

4H335-AA = target: T50, 4H335-AA; details: mean of both orientations
T50 chain: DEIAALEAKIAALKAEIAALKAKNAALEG

4H2617-AA = target: T51, 4H2617-AA; details: mean of both orientations
T51 chain: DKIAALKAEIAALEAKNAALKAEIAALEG

B1: 4H1135-AA (peptide)
chain: DENAALEAEIAALKAKIAALKAKNAALEG
interaction score (4H605-AA): -1.37 | interaction score (4H454-AA): -0.222 | interaction score (4H317-AA): -0.38 | interaction score (4H1153-AA): -0.461 | interaction score (4H48-AA): 0.894 | interaction score (4H2393-AA): -1.45 | interaction score (4H2078-AA): -1.19 | interaction score (4H2466-AA): -1.49 | interaction score (4H2575-AA): 0.484 | interaction score (4H1867-AA): 0.0539 | interaction score (4H566-AA): -0.252 | interaction score (4H3606-AA): 0.227 | interaction score (4H1324-AA): -1.33 | interaction score (4H2949-AA): -1.21 | interaction score (4H2277-AA): -1.81 | interaction score (4H2354-AA): -1.64 | interaction score (4H3343-AA): -0.943 | interaction score (4H1636-AA): -0.92 | interaction score (4H780-AA): -1.44 | interaction score (4H2944-AA): -1.57 | interaction score (4H717-AA): -1.4 | interaction score (4H122-AA): -1.24 | interaction score (4H1135-AA): -0.919 | interaction score (4H3921-AA): -0.897 | interaction score (4H3427-AA): -1.05 | interaction score (4H429-AA): -1.27 | interaction score (4H2642-AA): -1.3 | interaction score (4H2190-AA): -1.27 | interaction score (4H3112-AA): 1.57 | interaction score (4H1552-AA): 0.834 | interaction score (4H234-AA): -1.27 | interaction score (4H3844-AA): 0.92 | interaction score (4H3655-AA): 1.88 | interaction score (4H2729-AA): -0.655 | interaction score (4H1352-AA): 0.703 | interaction score (4H2151-AA): -0.817 | interaction score (4H906-AA): -1.37 | interaction score (4H993-AA): 0.00688 | interaction score (4H342-AA): -1.17 | interaction score (4H3627-AA): 0.0922 | interaction score (4H2837-AA): -0.865 | interaction score (4H794-AA): -1.61 | interaction score (4H1401-AA): -1.46 | interaction score (4H678-AA): -0.965 | interaction score (4H2165-AA): -1.42 | interaction score (4H2883-AA): 1.22 | interaction score (4H2505-AA): 1.53 | interaction score (4H2754-AA): -0.686 | interaction score (4H881-AA): -1.61 | interaction score (4H335-AA): -0.173 | interaction score (4H2617-AA): -0.407
